Measurements taken from patent US20050256058A1 (GEORGIA TECH RESEARCH, published 2005).
Numbered stars: 1 amine (or outer) side, 2 acyl side, 3 side chain; on linkers, the order of the positions; unused ones are H or OH. Square brackets hold non-standard residues; d marks the D form. * marks the point of attachment. CH═CH‑CON(CH2Ph)2 = O=C(/C=C/*)N(Cc1ccccc1)Cc1ccccc1; AAsp = aza-Asp, O=C(N(CC(=O)[*:3])N[*:1])[*:2]; Cbz = O=C(OCc1ccccc1)*

T1: Caspase-9 (UniProt P55211 1-416, limits assumed)
T1 sequence (looked up): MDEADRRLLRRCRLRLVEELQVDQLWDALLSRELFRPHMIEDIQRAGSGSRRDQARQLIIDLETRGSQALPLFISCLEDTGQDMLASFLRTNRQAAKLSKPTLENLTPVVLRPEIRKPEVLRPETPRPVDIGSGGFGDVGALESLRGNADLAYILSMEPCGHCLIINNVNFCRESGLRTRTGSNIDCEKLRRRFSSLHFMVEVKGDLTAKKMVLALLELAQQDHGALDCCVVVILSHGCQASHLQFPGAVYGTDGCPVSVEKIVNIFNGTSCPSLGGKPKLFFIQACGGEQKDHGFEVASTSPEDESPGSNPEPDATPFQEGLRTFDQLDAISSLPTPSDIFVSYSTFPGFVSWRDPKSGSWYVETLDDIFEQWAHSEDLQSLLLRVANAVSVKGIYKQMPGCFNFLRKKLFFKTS

T2: Caspase-2 (UniProt P42575 170-452, limits assumed)
T2 sequence (looked up): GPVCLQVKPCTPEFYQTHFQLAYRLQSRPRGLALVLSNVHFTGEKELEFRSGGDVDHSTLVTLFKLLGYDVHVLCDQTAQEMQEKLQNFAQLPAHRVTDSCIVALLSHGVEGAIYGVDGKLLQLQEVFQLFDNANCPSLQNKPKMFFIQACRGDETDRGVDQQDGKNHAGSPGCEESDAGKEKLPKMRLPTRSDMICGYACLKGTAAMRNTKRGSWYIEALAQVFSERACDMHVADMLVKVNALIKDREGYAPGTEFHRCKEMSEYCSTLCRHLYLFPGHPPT

T3: Caspase-10 (UniProt Q92851 220-521, limits assumed)
T3 sequence (looked up): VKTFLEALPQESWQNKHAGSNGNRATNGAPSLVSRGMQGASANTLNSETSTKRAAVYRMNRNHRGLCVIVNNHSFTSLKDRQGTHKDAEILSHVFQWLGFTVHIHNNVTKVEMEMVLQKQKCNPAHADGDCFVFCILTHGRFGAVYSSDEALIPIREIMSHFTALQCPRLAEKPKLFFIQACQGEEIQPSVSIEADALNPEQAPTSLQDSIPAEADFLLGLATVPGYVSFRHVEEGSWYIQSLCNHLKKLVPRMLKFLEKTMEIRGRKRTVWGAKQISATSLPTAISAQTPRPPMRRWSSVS

T4: Caspase-7 (UniProt P55210 24-303)
T4 sequence (looked up): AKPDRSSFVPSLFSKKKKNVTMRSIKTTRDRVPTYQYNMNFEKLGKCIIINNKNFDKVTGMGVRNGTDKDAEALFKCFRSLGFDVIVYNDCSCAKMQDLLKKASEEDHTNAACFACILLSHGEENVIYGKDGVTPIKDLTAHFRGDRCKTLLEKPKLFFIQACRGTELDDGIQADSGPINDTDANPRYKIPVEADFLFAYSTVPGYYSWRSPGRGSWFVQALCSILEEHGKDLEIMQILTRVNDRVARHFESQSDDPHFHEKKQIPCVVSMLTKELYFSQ

T5: Caspase-6 (UniProt P55212 24-293, limits assumed)
T5 sequence (looked up): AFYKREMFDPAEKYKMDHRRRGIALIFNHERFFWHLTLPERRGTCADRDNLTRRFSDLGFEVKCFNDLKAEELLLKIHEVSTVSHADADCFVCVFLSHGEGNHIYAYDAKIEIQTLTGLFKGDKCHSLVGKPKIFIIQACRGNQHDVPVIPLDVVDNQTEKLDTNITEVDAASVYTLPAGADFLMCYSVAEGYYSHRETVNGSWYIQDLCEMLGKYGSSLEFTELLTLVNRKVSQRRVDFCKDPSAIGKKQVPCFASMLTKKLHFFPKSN

T6: Caspase-3 (UniProt P42574 29-277)
T6 sequence (looked up): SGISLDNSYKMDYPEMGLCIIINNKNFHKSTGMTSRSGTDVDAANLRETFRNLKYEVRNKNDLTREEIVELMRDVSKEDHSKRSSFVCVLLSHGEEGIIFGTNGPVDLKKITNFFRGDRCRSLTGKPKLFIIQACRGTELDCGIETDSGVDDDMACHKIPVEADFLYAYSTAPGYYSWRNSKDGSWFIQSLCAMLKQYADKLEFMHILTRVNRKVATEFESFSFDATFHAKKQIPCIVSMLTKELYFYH


Columns and labels:
Assay in all cases: cell-based or functional assay
Caspase-9 = target: T1, Caspase-9
Caspase-2 = target: T2, Caspase-2
Caspase-10 = target: T3, Caspase-10
Caspase-8 = Caspase-8 (UniProt Q14790 217-479)
Caspase-7 = target: T4, Caspase-7
Caspase-6 = target: T5, Caspase-6
Caspase-3 [1] = target: T6, Caspase-3
Caspase-3 [2] = target: T6, Caspase-3; remark: listed apart in the source

Chain of Caspase-8 (Q14790 217-479 limits assumed): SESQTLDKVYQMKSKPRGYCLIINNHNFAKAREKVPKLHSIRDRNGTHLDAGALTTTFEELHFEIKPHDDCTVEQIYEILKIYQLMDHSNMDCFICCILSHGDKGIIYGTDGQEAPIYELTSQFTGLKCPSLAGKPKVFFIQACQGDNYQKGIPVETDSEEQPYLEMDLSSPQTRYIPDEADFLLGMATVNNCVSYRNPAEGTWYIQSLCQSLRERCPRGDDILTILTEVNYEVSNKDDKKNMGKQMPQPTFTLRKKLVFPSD

| Binder | k2 (Caspase-9) | k2 (Caspase-2) | k2 (Caspase-10) | k2 (Caspase-8) | k2 (Caspase-7) | k2 (Caspase-6) | k2 (Caspase-3 [1]) | fold more potent inhibition than of caspase-6 (Caspase-3 [2]) | fold more potent inhibition than of caspase-8 (Caspase-3 [2]) |
| --- | --- | --- | --- | --- | --- | --- | --- | --- | --- |
| Cbz-LET[AAsp]-{CH═CH‑CON(CH2Ph)2} (SMILES CC(C)C[C@H](NC(=O)OCc1ccccc1)C(=O)N[C@@H](CCC(=O)O)C(=O)N[C@H](C(=O)NN(CC(=O)O)C(=O)/C=C/C(=O)N(Cc1ccccc1)Cc1ccccc1)[C@@H](C)O) [Cbz-Leu-Glu-Thr-AAsp-CH═CH-CON(CH2Ph)2] | 1100 M⁻¹ s⁻¹ | 110 M⁻¹ s⁻¹ | 8080 M⁻¹ s⁻¹ | 129000 M⁻¹ s⁻¹ | 760 M⁻¹ s⁻¹ | 14100 M⁻¹ s⁻¹ | 8630 M⁻¹ s⁻¹ | – | – |
| Cbz-DEV[AAsp]-{CH═CH‑CON(CH2Ph)2} (SMILES CC(C)[C@H](NC(=O)[C@H](CCC(=O)O)NC(=O)[C@H](CC(=O)O)NC(=O)OCc1ccccc1)C(=O)NN(CC(=O)O)C(=O)/C=C/C(=O)N(Cc1ccccc1)Cc1ccccc1) [Cbz-Asp-Glu-Val-AAsp-CH═CH-CON(CH2Ph)2] | 450 M⁻¹ s⁻¹ | 110 M⁻¹ s⁻¹ | 6300 M⁻¹ s⁻¹ | 8600 M⁻¹ s⁻¹ | 359000 M⁻¹ s⁻¹ | 5100 M⁻¹ s⁻¹ | 3e+06 M⁻¹ s⁻¹ | 588 fold | 348 fold |
| Cbz-DEV[AAsp]-{CH═CH‑CONHCH2CH2Ph} [Cbz-Asp-Glu-Val-AAsp-CH═CH-CONHCH2CH2Ph] | 655 M⁻¹ s⁻¹ | 120 M⁻¹ s⁻¹ | 31400 M⁻¹ s⁻¹ | 129000 M⁻¹ s⁻¹ | 267000 M⁻¹ s⁻¹ | 3470 M⁻¹ s⁻¹ | 1.95e+06 M⁻¹ s⁻¹ | – | – |

More lines, now with the values ahead:

| k2 (Caspase-9) | k2 (Caspase-2) | k2 (Caspase-10) | k2 (Caspase-8) | k2 (Caspase-7) | k2 (Caspase-6) | k2 (Caspase-3 [1]) | fold more potent inhibition than of caspase-6 (Caspase-3 [2]) | fold more potent inhibition than of caspase-8 (Caspase-3 [2]) | Binder |
| --- | --- | --- | --- | --- | --- | --- | --- | --- | --- |
| 1660 M⁻¹ s⁻¹ | 92 M⁻¹ s⁻¹ | 9000 M⁻¹ s⁻¹ | 216000 M⁻¹ s⁻¹ | 540 M⁻¹ s⁻¹ | 13000 M⁻¹ s⁻¹ | 12100 M⁻¹ s⁻¹ | – | – | Cbz-LET[AAsp]-{CH═CH‑CO‑tetrahydroquinoline} [Cbz-Leu-Glu-Thr-AAsp-CH═CH-CON-tetrahydroquinoline] |
| 5030 M⁻¹ s⁻¹ | 290 M⁻¹ s⁻¹ | 13600 M⁻¹ s⁻¹ | 179000 M⁻¹ s⁻¹ | 1100 M⁻¹ s⁻¹ | 21700 M⁻¹ s⁻¹ | 11200 M⁻¹ s⁻¹ | – | – | Cbz-LET[AAsp]-{CH═CH‑CON(CH3)CH2‑1‑Napth} [Cbz-Leu-Glu-Thr-AAsp-CH═CH-CON(CH3)CH2-1-Napth] |
